Measurements taken from patent publication US6881575.

T1: Cdc25C peptide (amino acid 211 to 221 of Cdc25C; LYRSPSMPENL)
T1 chain: LYRSPSMPENL

T2: TAT-S216A peptide
T2 chain: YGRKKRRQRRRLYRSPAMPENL

T3: GST-Cdc25C (amino acid 200-256)
T3 sequence (P30307 whole entry, looked up): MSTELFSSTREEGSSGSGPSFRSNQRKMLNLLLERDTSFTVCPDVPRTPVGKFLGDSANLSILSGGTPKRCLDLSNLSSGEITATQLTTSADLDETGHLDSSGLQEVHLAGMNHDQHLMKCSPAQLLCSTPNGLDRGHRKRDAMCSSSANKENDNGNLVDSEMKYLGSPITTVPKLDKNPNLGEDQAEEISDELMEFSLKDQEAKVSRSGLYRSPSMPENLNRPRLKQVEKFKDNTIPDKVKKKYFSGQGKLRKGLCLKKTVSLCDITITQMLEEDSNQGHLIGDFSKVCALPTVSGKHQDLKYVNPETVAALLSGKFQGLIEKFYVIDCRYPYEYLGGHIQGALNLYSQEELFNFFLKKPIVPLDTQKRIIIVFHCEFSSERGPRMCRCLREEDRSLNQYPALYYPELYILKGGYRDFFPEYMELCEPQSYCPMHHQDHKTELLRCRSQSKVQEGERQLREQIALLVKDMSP


Legend:
[1] = target: T1, Cdc25C peptide (amino acid 211 to 221 …)
TAT-S216A peptide = target: T2, TAT-S216A peptide
[2] = target: T3, GST-Cdc25C (amino acid 200-256)

Protein	in vitro phosphorylation of the Cdc25C peptide by Chk2/HuCds1 [1]	phosphorylation of the peptide by hChk1 (TAT-S216 peptide)	phosphorylation of the peptide by hChk1 (TAT-S216A peptide)	in vitro phosphorylation of the Cdc25C peptide by hChk1 [1]	in vitro phosphorylation of GST-Cdc25C by immunoprecipitated hChk1 (32P-ATP, SDS-PAGE autoradiogram) [2]
LYRSPSMYENL [c-myc-tagged Chk2/HuCds1]	phosphorylation of Cdc25C peptide (residues 200-256) (SEQ ID NO:1) mediated by hChk1 (SEQ ID NO:3) and Chk2/HuCds1 (SEQ ID NO:4)	–	–	–	–
LYRSPSMFENL [HA-tagged hChk1]	–	TAT-S216 but not TAT-S216A was efficiently phosphorylated by hChk1	TAT-S216 but not TAT-S216A was efficiently phosphorylated by hChk1	phosphorylation of Cdc25C peptide (residues 200-256) (SEQ ID NO:1) mediated by hChk1 (SEQ ID NO:3) and Chk2/HuCds1 (SEQ ID NO:4)	hChk1 (SEQ ID NO:3) was capable of phosphorylating a Cdc25C protein (residues 20-256) (SEQ ID NO:1) fused to GST
